Patent publication US6352723B1, “Brain-derived alkali-soluble immunoregulatory composition” (priority 1999, dated 2002)
Where “and” joins values, the source holds several entries; their conditions need not be identical. Equal values may be shown once.

System: lymphocytes
Experiment: Proliferation assay for stimulated lymphocytes (tritiated thymidine incorporation; % suppression, SI)
Format: cell-based, mice
Settings: for SI (stimulation index): stimulant alone: OVA 500 μg/ml, PPD 25 μg/ml, ConA 2.5 μg/ml, LPS 10 μg/ml, ionomycin 100 ng/ml with 1 ng/ml PMA

Molecule | SI (stimulation index) | SI for chicken ovalbumin incubated with brain homogenate (homogenate removed by centrifugation and 0.2μ filter, n=4) | SI for chicken ovalbumin incubated alone (incubated without brain homogenate, n=4)
Concanavalin A [ConA, reference compound] | 31.2 ± 32.7 | – | –
ionomycin at 100 ng/ml with 1 ng/ml phorbol 12-myristate 13 acetate (PMA) [Ionomycin/PMA, reference compound] | 23.6 ± 11.2 | – | –
chicken ovalbumin (protein, UniProt P01012 2-386, looked up, Stimulating antigen) Ovalbumin: GSIGAASMEFCFDVFKELKVHHANENIFYCPIAIMSALAMVYLGAKDSTRTQINKVVRFDKLPGFGDSIEAQCGTSVNVHSSLRDILNQITKPNDVYSFSLASRLYAEERYPILPEYLQCVKELYRGGLEPINFQTAADQARELINSWVESQTNGIIRNVLQPSSVDSQTAMVLVNAIVFKGLWEKAFKDEDTQAMPFRVTEQESKPVQMMYQIGLFRVASMASEKMKILELPFASGTMSMLVLLPDEVSGLEQLESIINFEKLTEWTSSNVMEERKIKVYLPRMKMEEKYNLTSVLMAMGITDVFSSSANLSGISSAESLKISQAVHAAHAEINEAGREVVGSAEAGVDAASVSEEFRADHPFLFCIKHIATNAVLFFGRCVSP | 8.8 ± 5.8 and 7.9 ± 4.2 | 4.8±1.8 | 4.1±0.9
